This note sets out measurements from article PMC9909445 (Nature nanotechnology, 2022).

Assay [1] deals with T1, murine neutrophil elastase (mNE) (mouse, UniProt Q3UP87 27-265).
T1 sequence (looked up): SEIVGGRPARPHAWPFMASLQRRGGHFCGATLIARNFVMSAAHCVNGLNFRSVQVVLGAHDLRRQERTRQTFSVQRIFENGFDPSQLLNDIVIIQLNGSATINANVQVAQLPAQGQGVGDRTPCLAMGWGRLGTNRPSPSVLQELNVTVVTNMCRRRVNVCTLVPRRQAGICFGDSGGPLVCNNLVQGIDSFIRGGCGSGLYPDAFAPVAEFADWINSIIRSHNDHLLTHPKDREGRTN
The assay is described as follows: SPR. On the technique in general: In SPR one partner is held on a chip, and binding of the other changes the refractive index at the surface.

The target of assay [2] is T2, human neutrophil elastase (hNE) (human, UniProt P08246 30-267).
T2 sequence (looked up): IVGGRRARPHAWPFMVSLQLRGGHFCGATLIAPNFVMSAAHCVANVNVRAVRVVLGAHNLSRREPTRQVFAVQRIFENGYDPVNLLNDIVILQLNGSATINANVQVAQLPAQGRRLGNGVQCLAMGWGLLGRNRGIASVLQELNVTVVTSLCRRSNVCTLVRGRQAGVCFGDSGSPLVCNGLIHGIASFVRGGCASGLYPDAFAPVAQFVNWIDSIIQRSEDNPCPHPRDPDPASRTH
The assay is described as follows: MST.

For orientation: Kd means the constant that tells how readily two partners part at equilibrium. Read a low Kd as a tighter complex. Usually koff stands for the first-order rate constant of dissociation. Lower therefore signals slow dissociation. As usually defined, the kon is the second-order rate constant of association. Higher therefore signals fast association. With CGEAIPMSIPPEVK [NE-binding peptide (NEBP)], in assay [1], the Kd came to 0.0016 µM, the koff was 8.31e-06 s⁻¹ and the kon is 5200 M⁻¹ s⁻¹. This molecule yielded a Kd in assay [2] of 2.08 ± 1.35 µM.
